Data set [1] concerns the target T1, AND-1 full length (human, UniProt O75717 1-1129).
T1 sequence: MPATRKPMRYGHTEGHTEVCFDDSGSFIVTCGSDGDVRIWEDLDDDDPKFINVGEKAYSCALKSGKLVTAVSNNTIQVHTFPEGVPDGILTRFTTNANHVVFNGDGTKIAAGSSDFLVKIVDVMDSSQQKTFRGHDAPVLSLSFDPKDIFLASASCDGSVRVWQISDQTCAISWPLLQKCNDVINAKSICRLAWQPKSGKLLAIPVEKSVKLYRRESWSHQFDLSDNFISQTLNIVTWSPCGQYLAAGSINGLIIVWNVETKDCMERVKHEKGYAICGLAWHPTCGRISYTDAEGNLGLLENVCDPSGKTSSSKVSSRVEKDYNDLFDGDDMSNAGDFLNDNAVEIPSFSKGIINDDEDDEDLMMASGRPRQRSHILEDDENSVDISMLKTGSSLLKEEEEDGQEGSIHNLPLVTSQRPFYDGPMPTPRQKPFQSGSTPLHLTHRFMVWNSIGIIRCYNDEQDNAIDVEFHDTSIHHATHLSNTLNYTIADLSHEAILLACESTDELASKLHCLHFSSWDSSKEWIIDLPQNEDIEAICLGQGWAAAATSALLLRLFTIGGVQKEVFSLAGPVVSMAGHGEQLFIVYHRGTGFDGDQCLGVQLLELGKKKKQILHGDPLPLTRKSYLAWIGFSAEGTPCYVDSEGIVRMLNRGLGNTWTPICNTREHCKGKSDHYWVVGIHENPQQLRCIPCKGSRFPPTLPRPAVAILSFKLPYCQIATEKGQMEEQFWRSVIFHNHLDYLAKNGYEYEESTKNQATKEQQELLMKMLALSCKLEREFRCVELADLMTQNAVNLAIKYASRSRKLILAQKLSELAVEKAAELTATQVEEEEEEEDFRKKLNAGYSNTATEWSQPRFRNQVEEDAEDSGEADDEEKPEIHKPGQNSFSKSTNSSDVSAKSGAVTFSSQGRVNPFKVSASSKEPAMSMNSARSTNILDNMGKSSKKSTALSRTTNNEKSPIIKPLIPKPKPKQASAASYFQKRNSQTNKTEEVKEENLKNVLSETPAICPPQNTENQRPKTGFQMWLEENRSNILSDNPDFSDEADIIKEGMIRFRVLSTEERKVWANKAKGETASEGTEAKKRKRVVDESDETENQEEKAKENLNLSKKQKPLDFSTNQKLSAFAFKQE
Kind of data set: fluorescence anisotropy; FP: 25 mM HEPES pH 7.2, 100 mM KCl, 0.5 mM TCEP, 20 nM DNA, 25 C; EMSA: 25 mM HEPES pH 7.2, 100 mM KCl, 5 mM MgCl2, TCEP, 3 uM DNA, 0.75% (so in the source) agarose gel in 0.5x Tris-borate pH 8.3, 4 C. The conditions noted are these: protein: recombinant; tags: His10-myc; chain copies: 3; label: 5' 6FAM; single strand. (In general: Fluorescence polarisation rises when a labelled molecule tumbles more slowly, as on binding a larger partner.)

In data set [2] the target is T2, AND-1CT (human, UniProt O75717 837-1129).
T2 sequence: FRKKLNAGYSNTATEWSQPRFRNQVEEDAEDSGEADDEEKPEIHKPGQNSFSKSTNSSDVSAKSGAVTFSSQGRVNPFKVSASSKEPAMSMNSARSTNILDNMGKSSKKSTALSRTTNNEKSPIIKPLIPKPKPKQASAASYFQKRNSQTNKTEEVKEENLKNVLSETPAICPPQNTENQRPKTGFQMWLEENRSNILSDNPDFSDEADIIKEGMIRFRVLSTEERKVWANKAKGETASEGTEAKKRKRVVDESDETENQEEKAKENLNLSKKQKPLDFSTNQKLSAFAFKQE
Described as above. The conditions noted are these: protein: recombinant; tags: none (His6-MBP removed by TEV); label: 5' 6FAM; single strand.

Data set [3] has as its target T1, AND-1 full length. Description: EMSA; 5 mM MgCl2; FP: 25 mM HEPES pH 7.2, 100 mM KCl, 0.5 mM TCEP, 20 nM DNA, 25 C; EMSA: 25 mM HEPES pH 7.2, 100 mM KCl, 5 mM MgCl2, TCEP, 3 uM DNA, 0.75% (so in the source) agarose gel in 0.5x Tris-borate pH 8.3, 4 C. Conditions: protein: recombinant; tags: His10-myc; chain copies: 3; label: 5' 6FAM on strand 1; fork, 20 bp duplex (1:1-20 with 2:21-40), unpaired arms of 20 nt (1:21-40 3' arm, 2:1-20 5' arm). In general terms: In EMSA bound probe runs differently from free probe, usually more slowly.

The target in data set [4] is T3, AND-1 (329–826), SepB domain (human, UniProt O75717 329-826).
T3 construct: human AND-1, residues 329-826 (SepB domain); residues 329-420 and 824-826 not in the final crystallographic model; Trimer arises from crystallographic symmetry (one protomer per asymmetric unit); also called AND-1 SepB
T3 sequence (looked up): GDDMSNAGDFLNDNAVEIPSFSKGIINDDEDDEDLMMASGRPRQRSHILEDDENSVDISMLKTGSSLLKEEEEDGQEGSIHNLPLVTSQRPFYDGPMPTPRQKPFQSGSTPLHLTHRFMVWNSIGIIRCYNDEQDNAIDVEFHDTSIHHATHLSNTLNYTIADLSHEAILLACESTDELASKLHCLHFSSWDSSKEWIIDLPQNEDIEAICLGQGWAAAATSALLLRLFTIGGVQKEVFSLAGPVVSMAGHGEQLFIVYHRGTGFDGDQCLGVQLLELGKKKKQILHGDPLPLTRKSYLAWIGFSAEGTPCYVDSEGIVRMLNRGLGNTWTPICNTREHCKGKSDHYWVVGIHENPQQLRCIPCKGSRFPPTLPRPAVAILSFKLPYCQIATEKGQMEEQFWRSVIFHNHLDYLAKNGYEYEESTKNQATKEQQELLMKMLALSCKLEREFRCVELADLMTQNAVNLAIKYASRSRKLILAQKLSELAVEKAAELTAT
Description: fluorescence polarisation; 30 nM fluorescein-labelled Pol α CIP peptide, AND-1 SepB titrated; 25 mM HEPES pH 7.2, 140 mM NaCl, 5 mM DTT, 5 mM MgCl2, 5% glycerol; 25°C; 96-well plate. The conditions noted are these: both partners purified.

Experimental findings from publication PMC5717350, “The human CTF4-orthologue AND-1 interacts with DNA polymerase α/primase via its unique C-terminal HMG box” (Open Biology, 2017) are described below.

No end group written: not given here.

In general, Kd refers to the constant that tells how readily two partners part at equilibrium. Regarding CTTCCGAGACCTTGCCCATCCCGTAGAACCTGTTATCCAA (ssDNA) [ssDNA 40mer (oligo A)], the dissociation constant (Kd) in data set [1] and in data set [2] was around 800 nM throughout.

B1: fDNA (oligos A+C) (mixed)
DNA 1: CTTCCGAGACCTTGCCCATCCCGTAGAACCTGTTATCCAA
DNA 2: GCTACCTTTGAACCTACGATGATGGGCAAGGTCTCGGAAG
B1: the binding result in data set [3] is given as “binds”.

B2: Fluorescein-labelled Pol α CIP peptide (152–171) (peptide)
peptide: DLSKDGLLGDILQDLNTETP
modifications: also: fluorescein label, position not given here
notes: source: synthetic peptide (Genosphere Biotechnologies)
The molecule B2 showed a Kd in data set [4] of 39000 nM.
